To fix the notation:
T1: LukD (GS) (Staphylococcus aureus, UniProt O54082 27-327)
T1 sequence: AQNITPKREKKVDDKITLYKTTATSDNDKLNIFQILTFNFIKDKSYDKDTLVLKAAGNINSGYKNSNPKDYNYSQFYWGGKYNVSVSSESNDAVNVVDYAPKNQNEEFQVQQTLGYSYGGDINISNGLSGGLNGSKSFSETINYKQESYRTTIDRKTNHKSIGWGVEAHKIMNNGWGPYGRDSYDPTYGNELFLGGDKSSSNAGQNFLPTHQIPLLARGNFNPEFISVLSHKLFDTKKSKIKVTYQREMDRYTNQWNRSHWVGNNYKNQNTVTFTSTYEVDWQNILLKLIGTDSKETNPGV

T2: HlgB (GS) (Staphylococcus aureus, UniProt P0A077 26-325)
T2 sequence: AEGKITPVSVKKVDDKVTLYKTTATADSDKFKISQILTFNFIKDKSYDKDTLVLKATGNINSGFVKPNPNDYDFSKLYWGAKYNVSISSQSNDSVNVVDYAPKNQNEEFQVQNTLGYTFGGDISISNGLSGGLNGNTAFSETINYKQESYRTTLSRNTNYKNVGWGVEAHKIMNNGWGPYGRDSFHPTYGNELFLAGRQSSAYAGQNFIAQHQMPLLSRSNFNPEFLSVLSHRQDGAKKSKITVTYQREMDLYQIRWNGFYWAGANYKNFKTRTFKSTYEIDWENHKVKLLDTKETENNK

B1: H1H15414P (antibody, V domains shown)
VH: EVQLVESGGDLVQPGGSLRLSCAASGFTFSSFEMNWVRQAPGKGLEWVSYISSSGSTIYYADSVKDRFTVSRDKDKNSLYLQMNSLRAEDTAVYYCARGSWNQPYFDYWGQGTLVTVSS
VL: DIQMTQSPSTLSASVGDRVTITCRASQSISSWLAWYQLKPGKAPKVLIYKASSLESGVPSRFSGSGSGTEFTLTINSLQPDDFATYYCQQYNSWTFGQGTKVEIK
B2: H1H15420P2 (antibody, V domains shown)
VH: QVQLQESGLGLVKPSETLSLTCTVSGDSIGTYYWSWIRQPPGKGLEWIAYIYDSRHSNSNPSLKSRVTTSVDMSKNQFSLQLKSVTAADTAVYFCARDWGTWKPEGAFDIWGQGTMVTVSS
VL: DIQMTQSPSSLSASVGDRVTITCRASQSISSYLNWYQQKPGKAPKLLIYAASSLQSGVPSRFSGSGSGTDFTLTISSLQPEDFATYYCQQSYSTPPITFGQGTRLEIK
B3: H1H15377P (antibody, V domains shown)
VH: EVQLVESGGGLVQPGGSLRLSCAASGFTFTSYEMNWVRQAPGKGLEWISYISSGGDTKYYADSVRGRFTISRDNAKNSLYLQMNSLRAEDTALYYCARDVLNWVFDYWGRGTLVTVSS
VL: DIQMTQSPSSLSASVGDRVTITCRASQSIGKYLNWYRQSPGKAPKLLIYATSSLQSGVPSSFSGSGSGTDFTLTISSLQPEDFATYYCQQGFRTPFTFGPGTKVDIK
B4: H1H15378P (antibody, V domains shown)
VH: EVQLVESGGGLVQPGGSLRLSCAASGFTFNNYEMNWVRQAPGKGLEWVSFISSSGSTIDYAVSVKGRFTISRDNAKNSLYLQMNSLRPGDTAVYYCARARLDFYYYGMDVWGQGTTVTVSS
VL: DIQMTQSPSSLSASVGDRVTITCRASQGISNYLAWFQQKPGKAPKSLIYATSTLQSGVPSKFSGSGSGTDFTLTISSLQPEDFATYYCQQYNSFPLTFGGGTKVEIK
B5: H1H15379P (antibody, V domains shown)
VH: EVQLVESGGGLVQPGWSLRLSCAASGFTFDDYAMHWVRQAPGKGLEWVSGISWNSDDIDYTDSVKGRFTVSRDNAKNSLYLQMNSLRADDTAFYYCVRQRVRGYYYFGMDVWGQGTTVTVSS
VL: B4 VL with K45M, T51A, T53S, F94Y, L96F, G100P, E105D
B6: H1H15408P (antibody, V domains shown)
VH: EVQLVESGGGLVQPGGSLRLSCAASGFTFSRYDMSWVRQAPGKGLEWVSAISYSGDSTYYADSVQGRFTISRDNSKNTLYLQMNSLRAEDTALYHCAKDNGYSGTYYYYYGMDVWGQGTTVTVSS
VL: B4 VL with S46F, T51A, T53S, F94Y, L96Y, G100Q, V104L
B7: H1H15376P (antibody, V domains shown)
VH: QVQLQQSGPGLVKPSQTLSLTCAISGDSVASNNAAWNWIRQSPSRGLEWLGRTYYRSKWFNDYVESVKSRISFNPDTSKNQFSLQLNSVTPEDTAVYYCARSYYDFWSGYSENNYYFYGMDVWGQGTTVTVSS
VL: DIQMTQSPSSLSASVGDRVSITCRTSQGIRNDLGWYQQKPGKAPKRLIYAASSLQSGVPSRFSGSGSGTEFTLTISSLQPEDFATYYCLQHNIYPPTFGQGTKVEIK
B8: H1H15405P (antibody, V domains shown)
VH: EVQLVESGGGLVQPGGSLRLSCGASGFTFSYYWMTWVRQAPGKGLEWVANINQDGSEKFYVDSVRGRFTISRDNAKKSLYLQMNSLRAEDTAVYYCARDGYCSSIGCYNLYGMDVWGQGTTVTVSS
VL: DIQMTQSPSSLSASVGDRVTITCRASQNINKYLNWYQQKPGQAPKLLIYTTSSLQSGVPSRFSGSGSGTDFTLTISSLQPEDFATYSCQQSYNSPLTFGGGTKVEIK
B9: H1H15418P2 (antibody, V domains shown)
VH: QVQLVESGGGLVRPGGSLRLSCEASGFTFNEHYMSWIRQAPGKGLEWVAFISSGGSIIYYADSVKGRFTISRDSAKNSLYLQMNSLRPEDTAIYYCAREPFGGIIVFDYWGQGTLVTVSS
VL: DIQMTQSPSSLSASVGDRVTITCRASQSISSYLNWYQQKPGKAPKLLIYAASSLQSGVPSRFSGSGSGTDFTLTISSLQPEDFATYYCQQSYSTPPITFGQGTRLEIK
B10: H1H15399P (antibody, V domains shown)
VH: EVQLVESGGGLVQPGGSLRLSCAASGFTFSSSAMSWVRQAPGKGLEWVSTLNVGADSTFYAGSVRGRFTISRDNSKNTLFLQMNSLRAEDTAVYYCAKDWGGIPYYYYYYGMDVWGQGTTVTVSS
VL: DIQLTQSPSFLSASVGDRVTITCWASQGISSYLAWYQQKPGKAPNLLIYTASTLQSGVPSRFSGSGSGTEFTLTISSLQPEDFATYYCQQLNSYPLTFGGGTKVEIK
B11: H1H15380P (antibody, V domains shown)
VH: QVQLQESGPGLVKPSETLSLMCTVSGGSINNYYWSWIRQPPGKGLEWIGYIYNGGITKYNPSLKSRVTISVDTSKSQISLKLNSVTAADTAFYYCTKEQLERREGHIWFDPWGQGTLVTVSS
VL: DIQMTQSPSSLSASVGDRVTITCRASQTINNYLNWYHQKPGKAPKLLIYGTSSLQSGVPSRFSGSGSGTEFALTISSLQPEDFATYYCQQSSSTPYTFGQGTKLEIK
B12: H1H15404P (antibody, V domains shown)
VH: QVQLQESGPGLVKPSETLSLTCTVSGGSISGYFWGWIRQTPGKGLEWIGYIFYSGSTHYNPSFKSRVTMSVDTSKNQFALKLRSVTAADTAKYYCSRQREYYGSGNYRYFGMDVWGQGTTVTVSS
VL: AIQMTQSPSSLSASVGERVTITCRASQDIRDDLGWYQQRPGKAPNLLIYAASSLHSGVPSRFSGSGSGTDFTLTISSLQPEDFATYYCLQDYNYPWTFGQGTKVEIK
B13: H1H15410P (antibody, V domains shown)
VH: QVQLQESGPGLVKPSETLSLTCTVSGGSISGYFWGWVRQPPGKGLEWIGYIFYSGSTNYNPSLKSRITLSVDTSKNQFSLKLSSVTAADTAIYYCARHREYYGSGNYRYYALDVWGQGTTVTVSS
VL: B12 VL with E17D, D28G, R39K, N45K, H55Q, Y94F, W96L
B14: H1H15375P (antibody, V domains shown)
VH: QVQLVESGGGGVQPGRSLRLSCEASGFTFSDYGMQWVRQAPGKGLEWVAVIWDDGRKKYYADSVKGRFTVSRDNSKNTLYLEINSLRVEDTAVYYCAREGSSSSGRYFLYGMDVWGQGTTVTVSS
VL: DIQMTQSPSSLSASVGDRVTITCRASQRISSYLNWYQQKLGKAPKLLISVASSLQSGVPSRFSGSGSGTDFTLTISSLQPEDFGIYYCQQSYNTPPWTFGQGTKVEIK

Where a chain is given by its changes, count along the chain named.

The first experiment concerns the target T1, LukD (GS). The experiment is described as follows: ELISA, plate coated with toxin component.
Method: (§1) MaxiSorp microtiter plates were coated overnight with 10 μg/mL of individual F-components of S. aureus bicomponent toxins per well. Recombinant toxin components were either obtained from IBT BioServices (Gaithersburg, Md.) or generated by GenScript (Piscataway Township, N.J.). […] Wells were washed 3 times and then incubated with 100 ng/mL anti-human HRP secondary antibody per well for one hour at 25° C. 100 μL of SuperSignal ELISA Pico Chemiluminescent Substrate, (ThermoFisher Scientific) was added to the wells and signal was detected (Victor X3 plate reader, Perkin Elmer). Luminescence values were analyzed by a three-parameter logistic equation over an 11-point response curve (GraphPad Prism). Isotype-matched irrelevant control antibody and S. aureus delta toxin were included as controls.
As for B1, the binding result is “no binding (tested: titration 50 uM-100 pM)”.
B2: the binding result was “no binding (tested: titration 50 uM-100 pM)”.
The same measure, in the same setting: to B3 belongs “no binding (tested: titration 50 uM-100 pM)”; to B4, “no binding (tested: titration 50 uM-100 pM)”.
As for B5, the binding result is on record as “no binding (tested: titration 50 uM-100 pM)”.
Take B6: the binding result is recorded as “no binding (tested: titration 50 uM-100 pM)”.
The same measure, in the same setting: to B7 belongs “no binding (tested: titration 50 uM-100 pM)”; to B8, “no binding (tested: titration 50 uM-100 pM)”; to B9, “no binding (tested: titration 50 uM-100 pM)”.
For B10, the binding result was “no binding (tested: titration 50 uM-100 pM)”.
On the same count and under the same terms, to B11 belongs “no binding (tested: titration 50 uM-100 pM)”; to B12, “no binding (tested: titration 50 uM-100 pM)”; to B13, “no binding (tested: titration 50 uM-100 pM)”.

Another experiment concerns the target T2, HlgB (GS). The experiment is described as follows: ELISA, plate coated with toxin component. For orientation: An ELISA detects its analyte on a solid surface through an enzyme-linked reagent.
Method: as §1
B1: the binding result is on record as “no binding (tested: titration 50 uM-100 pM)”.
In the case of B2, the binding result is “no binding (tested: titration 50 uM-100 pM)”.
Still for that read-out and setting: next, B3: “no binding (tested: titration 50 uM-100 pM)”; B4: “no binding (tested: titration 50 uM-100 pM)”; B5: “no binding (tested: titration 50 uM-100 pM)”.
B6: the binding result is “no binding (tested: titration 50 uM-100 pM)”.
Same read-out and setting: to B7 belongs “no binding (tested: titration 50 uM-100 pM)”; to B8, “no binding (tested: titration 50 uM-100 pM)”.
As to B9, the binding result was “no binding (tested: titration 50 uM-100 pM)”.
On the same count and under the same terms, next, B10: “no binding (tested: titration 50 uM-100 pM)”; B11: “no binding (tested: titration 50 uM-100 pM)”.
Regarding B12, the binding result is “no binding (tested: titration 50 uM-100 pM)”.
Still for that read-out and setting: to B13 belongs “no binding (tested: titration 50 uM-100 pM)”.

A further experiment deals with S. aureus delta toxin (Staphylococcus aureus, UniProt P0C1V1 1-26). Description: ELISA, plate coated with toxin component.
Method: as §1
For B1, the binding result is on record as “no binding (tested: titration 50 uM-100 pM)”.
On to B2, for which the binding result is on record as “no binding (tested: titration 50 uM-100 pM)”.
Same read-out and setting: next, B3: “no binding (tested: titration 50 uM-100 pM)”.
B4: the binding result is given as “no binding (tested: titration 50 uM-100 pM)”.
Same read-out and setting: next, B5: “no binding (tested: titration 50 uM-100 pM)”.
As for B6, the binding result is given as “no binding (tested: titration 50 uM-100 pM)”.
As to B7, the binding result is on record as “no binding (tested: titration 50 uM-100 pM)”.
On the same count and under the same terms, to B8 belongs “no binding (tested: titration 50 uM-100 pM)”; to B9, “no binding (tested: titration 50 uM-100 pM)”; to B10, “no binding (tested: titration 50 uM-100 pM)”.
Still for that read-out and setting: to B11 belongs “no binding (tested: titration 50 uM-100 pM)”.
With B14, the binding result is reported as “no binding (tested: titration 50 uM-100 pM)”.
Same read-out and setting: next, B12: “no binding (tested: titration 50 uM-100 pM)”; B13: “no binding (tested: titration 50 uM-100 pM)”.
